Laboratory results from patent publication US20060286066A1 (published 2006).

Legend:
hen egg white lysozyme = hen egg white lysozyme (hen, UniProt P00698 19-147); test: batch binding to lysozyme-Sepharose affinity resin, SDS-PAGE read-out
Method: A HEL4 affinity based resin (based on the antigen, hen egg white lysozyme) was produced to test the functionality of the PEGylated dAb. Lysozyme was coupled to NETS activated Sepharose 4B resin (Amersham Pharmacia) following the manufacturer's instructions. The PEGylated samples (5 μg) were then mixed with the affinity resin (100 μl) and allowed to bind in PBS at room temperature for 30 mins. The resin was then extensively washed with PBS (3×1 ml) to remove unbound protein. The affinity resin was then run on a SDS-PAGE to determine if the PEGylated HEL4 had bound to the matrix (see Section 8.3).

[1] = target: T1, TNF receptor 1 Fc fusion protein (R&D Systems) (human, UniProt P19438 30-211, limits assumed); test: DOM1 receptor binding assay (RBA): dAb titrated against TNF binding to TNF receptor 1
T1 construct: also called recombinant TNF receptor 1 (p55); not shown: Fc part of the bought fusion protein, captured by an anti-human Fc antibody
T1 sequence (looked up): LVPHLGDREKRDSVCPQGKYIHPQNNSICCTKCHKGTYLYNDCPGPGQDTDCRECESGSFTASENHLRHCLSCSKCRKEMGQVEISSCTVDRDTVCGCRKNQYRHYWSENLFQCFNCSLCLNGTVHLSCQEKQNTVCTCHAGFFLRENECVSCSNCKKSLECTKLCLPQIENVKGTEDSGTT
Method: Assays for the measurement of receptor binding by a ligand, e.g., a cytokine, are known in the art. […] Briefly, Maxisorp plates are incubated overnight with […] anti-human Fc mouse monoclonal antibody (Zymed, San Francisco, USA). […] The plate is washed to remove any unbound protein before the detection step. […] The reaction is stopped by the addition of HCl and the absorbance is read at 450 nm.

[2] = target: p55 TNF-α receptor on MRC-5 cells (human) (UniProt P19438); test: cell-based or functional assay
Chain of p55 TNF-α receptor on MRC-5 cells (human) (P19438 30-455): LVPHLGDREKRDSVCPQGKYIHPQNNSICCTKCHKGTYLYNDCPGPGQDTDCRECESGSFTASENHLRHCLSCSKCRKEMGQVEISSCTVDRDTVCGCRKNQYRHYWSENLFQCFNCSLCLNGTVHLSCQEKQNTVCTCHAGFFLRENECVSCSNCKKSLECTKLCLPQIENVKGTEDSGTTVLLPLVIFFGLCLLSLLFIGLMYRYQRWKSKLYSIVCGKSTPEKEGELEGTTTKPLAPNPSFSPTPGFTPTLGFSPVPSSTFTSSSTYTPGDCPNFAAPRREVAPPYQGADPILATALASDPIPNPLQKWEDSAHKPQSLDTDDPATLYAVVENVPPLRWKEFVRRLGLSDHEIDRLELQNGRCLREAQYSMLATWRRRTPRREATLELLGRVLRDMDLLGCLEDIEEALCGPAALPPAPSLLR

Biotinylated human TNFRI [3] = target: T2, Biotinylated human TNFRI (human, UniProt P19438 30-211, limits assumed, biotinylated (approx 1 biotin per molecule)); test: SPR (Biacore), biotinylated human TNFRI on streptavidin chip, dAb injected
T2 sequence (looked up): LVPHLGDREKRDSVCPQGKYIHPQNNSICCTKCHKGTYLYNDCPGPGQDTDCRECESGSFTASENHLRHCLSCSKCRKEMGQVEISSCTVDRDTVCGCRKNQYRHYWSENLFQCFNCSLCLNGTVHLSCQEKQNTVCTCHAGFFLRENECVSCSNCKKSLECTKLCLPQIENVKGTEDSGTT
Source text: (§1) The effect of PEGylation on the binding affinity of TAR2-10-27 for its antigen was investigated using Biacore. All the PEGylated formats were generated using TAR2-10-27cys (see Example 2). The following methodology was used to determine the on and off rates of each PEGylated dAb format for the antigen. Biotinylated human TNFRI (approx 1 biotin per molecule) was coated onto a single flow cell of a Biacore streptavidin sensor chip at a density of approximately 400 RU. A concentration series of each dAb or PEGylated dAb (2.6 μM, 770 nM, 260 nM, 77 nM and 2.6 nM) was sequentially injected (45 μl injection at a flow rate of 30 μl/min) over both the TNFRI coated flow cell and an uncoated flow cell (streptavidin), (a subtractive curve was generated by subtracting the uncoated flow cell curve from the TNFRI flow cell curve). The off-rate was analysed for five minutes after the injection of each sample after which the surface was regenerated by injection of 10 mM glycine pH 3.
(§2) Data generated from the Biacore was fitted using the curve fitting software (Biaevaluation 3.2) and the association constant (kₐ) and dissociation constant (kd) determined (Table 8).

Biotinylated human TNFRI [4] = target: T2, Biotinylated human TNFRI; test: SPR (Biacore), biotinylated human TNFRI on streptavidin chip, dAb injected; KD from mean kd/ka
Source text: as §1, §2

[5] = target: T1, TNF receptor 1 Fc fusion protein (R&D …); test: TNF receptor binding assay: dAb titrated against TNF binding to TNF receptor 1

Chain of hen egg white lysozyme (P00698 19-147 limits assumed): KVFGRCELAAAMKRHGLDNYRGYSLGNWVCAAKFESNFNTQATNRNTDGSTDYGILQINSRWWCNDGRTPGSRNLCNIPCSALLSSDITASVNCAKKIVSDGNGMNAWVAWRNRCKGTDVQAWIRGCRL

Binder	IC50 [1]	MRC5 cell assay ND 50 [2]	other results
HEL4 PEGylated with SPA-PEG (other, SPA-PEG on surface lysine residues (sites not given), also called PEGylated HEL4) VH: EVQLLESGGGLVQPGGSLRLSCAASGFRISDEDMGWVRQAPGKGLEWVSSIYGPSGSTYYADSVKGRFTISRDNSKNTLYLQMNSLRAEDTAVYYCASALEPLSEPLGFWGQGTLVTVSS			binding result (hen egg white lysozyme): binds
HEL4 PEGylated with NHS-PEG (other, NHS-PEG on surface lysine residues (sites not given), also called PEGylated HEL4; HEL4 40K PEG-NHS) VH: EVQLLESGGGLVQPGGSLRLSCAASGFRISDEDMGWVRQAPGKGLEWVSSIYGPSGSTYYADSVKGRFTISRDNSKNTLYLQMNSLRAEDTAVYYCASALEPLSEPLGFWGQGTLVTVSS			binding result (hen egg white lysozyme): binds
TAR2-10-27 Asp62cys blocked (other, Cys62 blocked with N-ethylmaleimide, For numbering and entry offset see m28) VH: ASTEVQLLESGGGLVQPGGSLRLSCAASGFTFEWYWMGWVRQAPGKGLEWVSAISGSGGSTYYACSVKGRFTISRDNSKNTLYLQMNSLRAEDAAVYYCAKVKLGGGPNFGYRGQGTLVTVSS	15 nM	430 nM	
TAR2-10-27 Asp62cys 30K MAL PEG (protein, 30K MAL-PEG on Cys62) VH: ASTEVQLLESGGGLVQPGGSLRLSCAASGFTFEWYWMGWVRQAPGKGLEWVSAISGSGGSTYYACSVKGRFTISRDNSKNTLYLQMNSLRAEDAAVYYCAKVKLGGGPNFGYRGQGTLVTVSS		1000 nM	
TAR2-10-27 Leu115cys 30K MAL PEG (other, 30K MAL-PEG on Cys115, For numbering and entry offset see m28) VH: ASTEVQLLESGGGLVQPGGSLRLSCAASGFTFEWYWMGWVRQAPGKGLEWVSAISGSGGSTYYADSVKGRFTISRDNSKNTLYLQMNSLRAEDAAVYYCAKVKLGGGPNFGYRGQGTCVTVSS	10 nM	300 nM	
TAR2-10-27 Gln13cys blocked (other, Cys13 blocked with N-ethylmaleimide, For numbering and entry offset see m28) VH: ASTEVQLLESGGGLVCPGGSLRLSCAASGFTFEWYWMGWVRQAPGKGLEWVSAISGSGGSTYYADSVKGRFTISRDNSKNTLYLQMNSLRAEDAAVYYCAKVKLGGGPNFGYRGQGTLVTVSS	2 nM	30 nM	
TAR210-27 5K MAL PEG (other, 5K MAL-PEG on the C-terminal Cys (Ser120cys), For the limits of the entry see m36) VH: ASTEVQLLESGGGLVQPGGSLRLSCAASGFTFEWYWMGWVRQAPGKGLEWVSAISGSGGSTYYADSVKGRFTISRDNSKNTLYLQMNSLRAEDAAVYYCAKVKLGGGPNFGYRGQGTLVTVSC			koff (Biotinylated human TNFRI [3]): 0.011 s⁻¹; kon (Biotinylated human TNFRI [3]): 90000 M⁻¹ s⁻¹; Kd (Biotinylated human TNFRI [4]): 122 nM
TAR2-10-27 Glu89cys blocked (other, Cys89 blocked with N-ethylmaleimide, For numbering and entry offset see m28) VH: ASTEVQLLESGGGLVQPGGSLRLSCAASGFTFEWYWMGWVRQAPGKGLEWVSAISGSGGSTYYADSVKGRFTISRDNSKNTLYLQMNSLRACDAAVYYCAKVKLGGGPNFGYRGQGTLVTVSS	3 nM	70 nM	
TAR210-27 20K MAL PEG (other, 20K MAL-PEG on the C-terminal Cys (Ser120cys), For the limits of the entry see m36) VH: ASTEVQLLESGGGLVQPGGSLRLSCAASGFTFEWYWMGWVRQAPGKGLEWVSAISGSGGSTYYADSVKGRFTISRDNSKNTLYLQMNSLRAEDAAVYYCAKVKLGGGPNFGYRGQGTLVTVSC			koff (Biotinylated human TNFRI [3]): 0.012 s⁻¹; kon (Biotinylated human TNFRI [3]): 79900 M⁻¹ s⁻¹; Kd (Biotinylated human TNFRI [4]): 150 nM
TAR2-10-27 Pro41cys 30K MAL PEG (other, 30K MAL-PEG on Cys41, For numbering and entry offset see m28) VH: ASTEVQLLESGGGLVQPGGSLRLSCAASGFTFEWYWMGWVRQACGKGLEWVSAISGSGGSTYYADSVKGRFTISRDNSKNTLYLQMNSLRAEDAAVYYCAKVKLGGGPNFGYRGQGTLVTVSS	8 nM	200 nM	
TAR2-10-27 Gln13cys 30K MAL PEG (other, 30K MAL-PEG on Cys13, For numbering and entry offset see m28) VH: ASTEVQLLESGGGLVCPGGSLRLSCAASGFTFEWYWMGWVRQAPGKGLEWVSAISGSGGSTYYADSVKGRFTISRDNSKNTLYLQMNSLRAEDAAVYYCAKVKLGGGPNFGYRGQGTLVTVSS	8 nM	200 nM	
TAR2-10-27 Gln112cys blocked (other, Cys112 blocked with N-ethylmaleimide, For numbering and entry offset see m28) VH: ASTEVQLLESGGGLVQPGGSLRLSCAASGFTFEWYWMGWVRQAPGKGLEWVSAISGSGGSTYYADSVKGRFTISRDNSKNTLYLQMNSLRAEDAAVYYCAKVKLGGGPNFGYRGCGTLVTVSS	2 nM	15 nM	
TAR2-10-27 Leu115cys blocked (other, Cys115 blocked with N-ethylmaleimide, For numbering and entry offset see m28) VH: ASTEVQLLESGGGLVQPGGSLRLSCAASGFTFEWYWMGWVRQAPGKGLEWVSAISGSGGSTYYADSVKGRFTISRDNSKNTLYLQMNSLRAEDAAVYYCAKVKLGGGPNFGYRGQGTCVTVSS	3 nM	30 nM	
TAR2-10-27 Ser120cys blocked (other, C-terminal Cys (Ser120cys) blocked with N-ethylmaleimide, TAR2-10-27 cys; the entry already carries Ser120cys) VH: ASTEVQLLESGGGLVQPGGSLRLSCAASGFTFEWYWMGWVRQAPGKGLEWVSAISGSGGSTYYADSVKGRFTISRDNSKNTLYLQMNSLRAEDAAVYYCAKVKLGGGPNFGYRGQGTLVTVSC	3 nM	30 nM	koff (Biotinylated human TNFRI [3]): 0.00596 s⁻¹; kon (Biotinylated human TNFRI [3]): 577000 M⁻¹ s⁻¹; Kd (Biotinylated human TNFRI [4]): 10.3 nM
TAR2-10-27 Thr117cys 30K MAL PEG (other, 30K MAL-PEG on Cys117, For numbering and entry offset see m28) VH: ASTEVQLLESGGGLVQPGGSLRLSCAASGFTFEWYWMGWVRQAPGKGLEWVSAISGSGGSTYYADSVKGRFTISRDNSKNTLYLQMNSLRAEDAAVYYCAKVKLGGGPNFGYRGQGTLVCVSS	8 nM	700 nM	
TAR2-10-27 Gln112cys 30K MAL PEG (other, 30K MAL-PEG on Cys112, For numbering and entry offset see m28) VH: ASTEVQLLESGGGLVQPGGSLRLSCAASGFTFEWYWMGWVRQAPGKGLEWVSAISGSGGSTYYADSVKGRFTISRDNSKNTLYLQMNSLRAEDAAVYYCAKVKLGGGPNFGYRGCGTLVTVSS	15 nM	650 nM	
TAR210-27 2 × 10K MAL PEG (other, 2 × 10K MAL-PEG on the C-terminal Cys (Ser120cys), For the limits of the entry see m36) VH: ASTEVQLLESGGGLVQPGGSLRLSCAASGFTFEWYWMGWVRQAPGKGLEWVSAISGSGGSTYYADSVKGRFTISRDNSKNTLYLQMNSLRAEDAAVYYCAKVKLGGGPNFGYRGQGTLVTVSC			koff (Biotinylated human TNFRI [3]): 0.00954 s⁻¹; kon (Biotinylated human TNFRI [3]): 120000 M⁻¹ s⁻¹; Kd (Biotinylated human TNFRI [4]): 79.5 nM
TAR2-10-27 Ser120cys 30K MAL PEG (other, 30K MAL-PEG on the C-terminal Cys (Ser120cys), TAR2-10-27 cys; For the limits of the entry see m36; also called TAR210-27 30K MAL PEG) VH: ASTEVQLLESGGGLVQPGGSLRLSCAASGFTFEWYWMGWVRQAPGKGLEWVSAISGSGGSTYYADSVKGRFTISRDNSKNTLYLQMNSLRAEDAAVYYCAKVKLGGGPNFGYRGQGTLVTVSC	10 nM	600 nM	koff (Biotinylated human TNFRI [3]): 0.00769 s⁻¹; kon (Biotinylated human TNFRI [3]): 83400 M⁻¹ s⁻¹; Kd (Biotinylated human TNFRI [4]): 92.2 nM
TAR2-10-27 Thr117cys blocked (other, Cys117 blocked with N-ethylmaleimide, For numbering and entry offset see m28) VH: ASTEVQLLESGGGLVQPGGSLRLSCAASGFTFEWYWMGWVRQAPGKGLEWVSAISGSGGSTYYADSVKGRFTISRDNSKNTLYLQMNSLRAEDAAVYYCAKVKLGGGPNFGYRGQGTLVCVSS	3 nM	30 nM	
TAR210-27 2 × 20K MAL PEG (other, 2 × 20K (40K branched) MAL-PEG on the C-terminal Cys (Ser120cys), For the limits of the entry see m36; also called 40K PEGylated monomer (TAR2-10-27)) VH: ASTEVQLLESGGGLVQPGGSLRLSCAASGFTFEWYWMGWVRQAPGKGLEWVSAISGSGGSTYYADSVKGRFTISRDNSKNTLYLQMNSLRAEDAAVYYCAKVKLGGGPNFGYRGQGTLVTVSC			IC50 [5]: ~20 nM; koff (Biotinylated human TNFRI [3]): 0.00517 s⁻¹; kon (Biotinylated human TNFRI [3]): 74700 M⁻¹ s⁻¹; Kd (Biotinylated human TNFRI [4]): 69.2 nM
TAR2-10-27 Pro41cys blocked (other, Cys41 blocked with N-ethylmaleimide, For numbering and entry offset see m28) VH: ASTEVQLLESGGGLVQPGGSLRLSCAASGFTFEWYWMGWVRQACGKGLEWVSAISGSGGSTYYADSVKGRFTISRDNSKNTLYLQMNSLRAEDAAVYYCAKVKLGGGPNFGYRGQGTLVTVSS	1 nM	45 nM	
TAR2-10-27 Glu89cys 30K MAL PEG (other, 30K MAL-PEG on Cys89, For numbering and entry offset see m28) VH: ASTEVQLLESGGGLVQPGGSLRLSCAASGFTFEWYWMGWVRQAPGKGLEWVSAISGSGGSTYYADSVKGRFTISRDNSKNTLYLQMNSLRACDAAVYYCAKVKLGGGPNFGYRGQGTLVTVSS	20 nM	100 nM	
